Here are results for 1 substance from patent US20040038369A1, “Airway-specific trypsin-like enzymes and method of using the same” (priority 2000, published 2004).

In assay [1] the target is T1, PAR-2 (Homo sapiens, UniProt P55085).
T1 construct: expressed in transfected cells; host or cells: Sf9 insect cells infected with recombinant baculovirus VL-PAR (pVL1393)
T1 sequence (P55085 26-397): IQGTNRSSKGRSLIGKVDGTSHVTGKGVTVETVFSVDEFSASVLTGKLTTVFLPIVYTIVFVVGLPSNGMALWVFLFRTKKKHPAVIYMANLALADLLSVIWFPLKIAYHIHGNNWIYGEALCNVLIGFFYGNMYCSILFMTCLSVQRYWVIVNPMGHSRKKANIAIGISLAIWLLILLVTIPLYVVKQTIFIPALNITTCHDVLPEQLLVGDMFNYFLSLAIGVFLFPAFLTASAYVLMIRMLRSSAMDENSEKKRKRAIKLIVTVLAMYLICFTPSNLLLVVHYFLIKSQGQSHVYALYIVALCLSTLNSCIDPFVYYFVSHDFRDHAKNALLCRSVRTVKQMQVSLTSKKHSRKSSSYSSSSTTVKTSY
Briefly: Calcium influx in PAR-2-expressing insect cells. It is filed as cell-based. Conditions: AST 2 units/mL; trypsin, thrombin 0.1 to 10 units/mL; SFLLRNamide, SLIGRL 10 to 100 μM. Here is the method: The above-obtained recombinant baculovirus VL-PAR for expressing the PAR was used to infect 1.0×10^7 Sf9 cells sowed on a 75 cm^2 flask at an MOI=2, and was then left and stationally cultured at 27° C. for 40 hours. After the culture, the infected cells were recovered and then subjected to a calcium influx experiment to-confirm the function of the PAR.
The recovered infected cells (about 5×10^6 cells) were once washed with HEPES-Tyrode buffer solution-Ca^2+ (−) pH 7.4, and then suspended in 5 mL of HEPES-Tyrode buffer solution (containing Fura2-AM, 1 μg/mL) to load the Fura2-AM on the cells at 27° C. for 30 minutes. The suspension was centrifuged at 800 rpm at room temperature for 5 minutes to recover the cells. The cells were twice washed with HEPES-Tyrode buffer solution-Ca^2+ (−) pH 7.4 and then resuspended in 5 mL of HEPES-Tyrode buffer solution-Ca^2+ (−) pH 7.4. The cell suspension was mixed with 5 μL of 1M CaCl2 to give a final concentration of 1 mM CaCl2, and then incubated in a shaded state at room temperature for 5 minutes. The prepared Fura2-AM-loaded infected cells were dispensed into a 96 well plate in a volume of 100 μL/well, further subjected to the dispensation of HEPES-Tyrode buffer solution-C^2+ (+) pH 7.4 in a volume of 80 μL/well, and then assayed with a Fluorescence Drug Screening System (made by Hamamatsu Photonics Co.). Namely, [intensity of 500 nm fluorescent light due to 340 nm exciting light]/[intensity of 500 nm fluorescent light due to 380 nm exciting light] (reflecting the concentration of calcium in the cells) was assayed.

Assay [2] has as its system Muc5AC mRNA in NCI-H292 cells. Kind of assay: Muc5AC mRNA expression in NCI-H292 by real time PCR. Conditions: HAST 300 mU/mL, 24 hours. It is filed as cell-based, human. Here is the method:
NCI-H292 cells (purchased from ATCC) were suspended in 10% FCS-containing RPMI-1640 (produced by Gibco Corp.), sowed on a 96 well plate (produced by Falcon Corp.) in a density of 6.0×10^4 cells/cm^2, cultured for 72 hours, subjected to the replacement of the culture solution by RPMI-1640 containing 0.1% of BSA, and further cultured for 24 hours.
Before added to the cells, leupeptin in various concentrations was reacted with 300 mU/mL of HAST on ice for 30 minutes, and further heated at 37° C. Then, the culture solution in the wells was wholly exchanged by the culture medium containing the HAST or leupeptin to start the treatment, and the treatment was carried out for 24 hours. HAST (300 mU/mL) thermally treated at 99° C. for 10 minutes as a control, EGF alone (1 ng/mL), and a combination of EGF (5 ng/mL) with leupeptin (10^−5 M) were also similarly treated. The number of the samples was 3.
An EGF treatment sample was continuously diluted five times to prepare a standard. […]
(§1) For both the Muc5AC and the β-actin, the expression quantities of the samples were relatively compared from the obtained Ct values and the standard straight line. […]
as §1

As for “HAST: human airway-specific trypsin-like enzyme; propeptide moiety bound to trypsin-like protein moiety via a disulfide bond”, in assay [1], the “Ca2+ influx” value is on record as “observed”. Moreover, the Muc5AC gene expression entry in assay [2] is “promoted”.
